Test results taken from US20220177587A1, “METHODS AND USES OF VARIANT CD80 FUSION PROTEINS AND RELATED CONSTRUCTS” (Alpine Immune Sciences, Inc., priority 2018, published 2022).
Substitutions are numbered along the chain they refer to. Names and notes keep the numbering of the source.

B1: M47L (protein)
chain: VIHVTKEVKEVATLSCGHNVSVEELAQTRIYWQKEKKMVLTMMSGDLNIWPEYKNRTIFDITNNLSIVILALRPSDEGTYECVVLKYEKDAFKREHLAEVTLSVKAD
B2: E35D/D46V/M47L/V68M/L85Q (protein)
chain: B1 chain with E35D, D46V, V68M, L85Q
B3: M47V (protein)
chain: B1 chain with L47V
B4: E35D/M47L/V68M (protein)
chain: B1 chain with E35D, V68M
B5: E35D/V68M/L85Q (protein)
chain: B1 chain with E35D, L47M, V68M, L85Q
B6: E35D/D46V/M47L/L85Q (protein)
chain: B1 chain with E35D, D46V, L85Q
B7: D46V/M47L/L85Q (protein)
chain: B1 chain with D46V, L85Q
B8: D46V/M47L/V68M (protein)
chain: B1 chain with D46V, V68M
B9: K89N (protein)
chain: B1 chain with L47M, K89N
B10: D46V/V68M (protein)
chain: B1 chain with D46V, L47M, V68M
B11: D46V/L85Q (protein)
chain: B1 chain with D46V, L47M, L85Q
B12: T13R/Q33R/E35D/M47L/V68M (protein)
chain: VIHVTKEVKEVARLSCGHNVSVEELAQTRIYWRKDKKMVLTMMSGDLNIWPEYKNRTIFDITNNLSIMILALRPSDEGTYECVVLKYEKDAFKREHLAEVTLSVKADFPTPSISDFETPTSNIRRIICSTSGGFPEPHLSWLENGEELNAINTTVSQDPETELYAVSSKLDFNMTTNHSFMCLIKYGHLRVNQTFNWNTTKQEHFPDN
modifications: CD80 v381 ECD
B13: T13R/Q33R/E35D/M47L/V68M/L85M (protein)
chain: B12 chain with L85M
modifications: CD80 v382 ECD
B14: E24D/E35D/M47L/V68M/E95V/L97Q (protein, UniProt P33681 35-288, looked up, variant E24D E35D M47L V68M E95V L97Q)
T-lymphocyte activation …: VIHVTKEVKEVATLSCGHNVSVEDLAQTRIYWQKDKKMVLTMMSGDLNIWPEYKNRTIFDITNNLSIMILALRPSDEGTYECVVLKYEKDAFKRVHQAEVTLSVKADFPTPSISDFEIPTSNIRRIICSTSGGFPEPHLSWLENGEELNAINTTVSQDPETELYAVSSKLDFNMTTNHSFMCLIKYGHLRVNQTFNWNTTKQEHFPDNLLPSWAITLISVNGIFVICCLTYCFAPRCRERRRNERLRRESVRPV

Key:
CD28 [1] = target: T1, CD28 (Homo sapiens, UniProt P10747); assay: Flow binding to Jurkat/IL2 reporter cells (CD28); parameters: host or cells: Jurkat cells expressing an IL-2-luciferase reporter; conditions: for CD28 MFI at 33.3 nM: Jurkats (CD28)
Summary of the method: (§1)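 Cells were first blocked in PBS with 1% BSA and 0.1% sodium azide. Primary staining with fusion protein ran 45 min on ice, and secondary staining with PE anti-human Fc at 1:150 ran 30 min on ice.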

CD28 [2] = target: T1, CD28; assay: Jurkat/IL2 + CHO/OKT3 +/- PD-L1 reporter assay: PD-L1-dependent CD28 costimulation; format: cell-based; parameters: host or cells: Jurkat cells expressing an IL-2-luciferase reporter; conditions: Jurkat/IL2 + CHO/OKT3/PD-L1; for Fold Increase over WT CD80-IgV-Fe / Relative Luciferase Units (RLU), CD80 Cone 5.0 nM: 5.0 nM
Summary of the method: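 Readout is relative luminescence from lysed cocultures: test protein given 15 min at room temperature to Jurkat cells before adding CHO artificial APCs displaying OKT3 alone or OKT3 plus PD-L1, then 5 h at 37 °C, 5% CO2.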

huCTLA4 = huCTLA4 (Homo sapiens, UniProt P16410); assay: Flow binding to CHO cells stably expressing CTLA4; parameters: huCTLA4 and huPD-L1, full-length mammalian surface expression constructs were generated; expressed in transfected cells; host or cells: CHO cells, lentiviral transduction, sorted to >98% purity; conditions: for CTLA4 MFI at 33.3 nM: CHO cells stably expressing CTLA4
Summary of the method: as §1

huPD-L1 = huPD-L1 (Homo sapiens, UniProt Q9NZQ7); assay: Flow binding to CHO cells stably expressing PD-L1; parameters: huCTLA4 and huPD-L1, full-length mammalian surface expression constructs were generated; expressed in transfected cells; host or cells: CHO cells, lentiviral transduction, sorted to >98% purity; conditions: for PD-L1 MFI at 33.3 nM: CHO cells stably expressing PD-L1
Summary of the method: as §1

[3] = Table E19, MFI at 33.3 nM relative to WT CD80 ECD-Fc (Abcam)
[4] = Table E19, ratio of MFI at 33.3 nM
[5] = Table E11, 33.3 nM, listed as WT CD80 ECD-Fc = 1.0

Sequence of huCTLA4 (P16410 36-223): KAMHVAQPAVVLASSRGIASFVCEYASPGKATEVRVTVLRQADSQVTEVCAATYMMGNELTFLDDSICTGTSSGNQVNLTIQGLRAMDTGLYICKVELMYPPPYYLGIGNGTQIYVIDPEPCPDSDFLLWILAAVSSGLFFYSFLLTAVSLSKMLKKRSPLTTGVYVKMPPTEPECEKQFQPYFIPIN
Sequence of huPD-L1 (Q9NZQ7 19-290): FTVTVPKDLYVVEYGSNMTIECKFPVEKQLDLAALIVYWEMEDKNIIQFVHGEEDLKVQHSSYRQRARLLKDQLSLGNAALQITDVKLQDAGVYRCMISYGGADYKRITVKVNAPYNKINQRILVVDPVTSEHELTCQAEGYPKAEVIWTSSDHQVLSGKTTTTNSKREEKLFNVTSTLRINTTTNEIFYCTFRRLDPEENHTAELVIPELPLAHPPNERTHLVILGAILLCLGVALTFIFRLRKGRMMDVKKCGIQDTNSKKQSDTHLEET

Row | Molecule | CD28 MFI at 33.3 nM (CD28 [1]; Table E19, 33.3 nM) | CD28 Fold change to WT CD80 (CD28 [1]; [3]) [fold] | Fold Increase over WT CD80-IgV-Fe (CD28 [2]; Table E21) [fold] | Relative Luciferase Units (RLU), CD80 Conc 5.0 nM (CD28 [2]; Table E21) [RLU] | CTLA4 MFI at 33.3 nM (huCTLA4; Table E19, 33.3 nM) | CTLA4 Fold change to WT CD80 (huCTLA4; [3]) [fold] | PD-L1 MFI at 33.3 nM (huPD-L1; Table E19, 33.3 nM) | PD-L1 Fold change to WT CD80 (huPD-L1; [3]) [fold] | Ratio of PDL1:CD28 (huPD-L1; [4]) | CD28 Fold change to WT CD80 (CD28 [1]; [5]) | CD28 MFI at 33.3 nM (CD28 [1]; Table E11, 33.3 nM) | Fold Increase over WT CD80-IgV-Fe (CD28 [2]; Table E13) | Relative Luciferase Units (RLU), CD80 Cone 5.0 nM (CD28 [2]; Table E13) [RLU] | CTLA4 Fold change to WT CD80 (huCTLA4; [5]) | CTLA4 MFI at 33.3 nM (huCTLA4; Table E11, 33.3 nM) | PD-L1 Fold change to WT CD80 (huPD-L1; [5]) | PD-L1 MFI at 33.3 nM (huPD-L1; Table E11, 33.3 nM) | Ratio of PDL1:CD28 (huPD-L1; Table E11, MFI at 33.3 nM)
1 | B1 | 309 | 0.4 | 4.6 | 530 | 30774 | 0.8 | 1895 | 14.8 | 6.1 | – | – | – | – | – | – | – | – | –
2 | B2 | 464 | 0.7 | 6.2 | 712 | 26207 | 0.6 | 28418 | 222.0 | 61.2 | – | – | – | – | – | – | – | – | –
3 | B3 | 68.7 | 0.1 | 3.9 | 445 | 33341 | 0.8 | 2317 | 18.1 | 33.7 | – | – | – | – | – | – | – | – | –
4 | B4 | 1243 | 1.8 | 6.5 | 749 | 28603 | 0.7 | 27896 | 217.9 | 22.4 | – | – | – | – | – | – | – | – | –
5 | B5 | 76.2 | 0.1 | 4.4 | 511 | 42761 | 1.1 | 5971 | 46.6 | 78.4 | – | – | – | – | – | – | – | – | –
6 | B6 | 268 | 0.4 | 4.2 | 481 | 38150 | 0.9 | 7523 | 58.8 | 28.1 | – | – | – | – | – | – | – | – | –
7 | B7 | 567 | 0.8 | 5.2 | 598 | 40153 | 1.0 | 5976 | 46.7 | 10.5 | – | – | – | – | – | – | – | – | –
8 | B8 | 2183 | 3.1 | 6.3 | 724 | 34688 | 0.9 | 28020 | 218.9 | 12.8 | – | – | – | – | – | – | – | – | –
9 | B9 | 56.3 | 0.1 | 1.0 | 116 | 944 | 0.0 | 52.8 | 0.4 | 0.9 | – | – | – | – | – | – | – | – | –
10 | B10 | 556 | 0.8 | 2.5 | 292 | 5334 | 0.1 | 2271 | 17.7 | 4.1 | – | – | – | – | – | – | – | – | –
11 | B11 | 131 | 0.2 | 3.0 | 342 | 41896 | 1.0 | 2197 | 17.2 | 16.8 | – | – | – | – | – | – | – | – | –
12 | B12 | – | – | – | – | – | – | – | – | – | 0.4 | 14.1 | 1.0 | 399 | 11.8 | 20738 | 285.0 | 14680 | 1041.1
13 | B13 | – | – | – | – | – | – | – | – | – | 3.6 | 112 | 2.9 | 1160 | 7.7 | 13438 | 367.7 | 18938 | 169.1
14 | B14 | – | – | – | – | – | – | – | – | – | 0.5 | 15 | 2.7 | 1087 | 8.8 | 15505 | 362.1 | 18649 | 1268.6
